# According to a protein production outcome set (Wang et al. 2014):
# Assay: label from the status in PepcDB records
# 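Also: failed if final PepcDB status was selected cloned or expressed and not failed if soluble or beyond.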
row,Sequence,protein production
1,EGAGDALTTVAERARLLADACAGVILHPTAEGGMAIVTASTPDDPDGMVGATIEPGSPVLEQLLGGEPVFVDDSATDPRMTTHVRHRFGPSMMLPLQAGGRLIGTLALPRRRGGRPYTDLERLLATQFASQAALALVLADARRGRELLAVYEDRDRIARDLHDLVV,failed
2,EGLNICKKIMVISDKNDAISEFIIKELERGCTIIDGKGGYTGKDTYILYTVLNRKEFIRLRIFIKETDPNAFITISDAKEVLGEGFKEI,not failed
3,EHIARRKAGDAAERLVKLIPAFCHHMPDYPDTQETCEAAVVKLKAGDIVLVKPGETIPVDGTVLEGSSAVNESMLTGESLPVAKMPSEKVTAGTLNTQSPLIIRTDRTGGGTRLSHIVRLLDRALAQKPRTAELAEQ,failed
4,EIKIGITMSASGPGAALGQPQSKTVAALPKEIGGEKVTYFALDDESDPTKAAQNARKLLSEEKVDVLIGSSLTPVSLPLIDIAAEAKTPLMTMAAAAILVAPMDERRKWVYKVVPNDDIMAEAIGKYIAKTGAKKVGYIGFSDAYGEGYYKVLAAAAPKLGFELTTHEVYARSDASVTGQVLKIIATKPDAVFIASAGTPAVLPQKALRERGFKGAIYQTHGVATEEFIKLGGKDVEGAIFAGEAFSGAEDMPADSPFRKVKARFVDAYKAANGGAAPTIFGVHLWDSMTLVENAIPAALKAAKPGTPEFRAAIRDQIEKSKDLALNNGLSNMTPDNHNGYDERSAFLIEIRDGAFRLKQ,not failed
5,EKAEDCWELQISPELLAHGRQKILDLLNEGSARDLRSLQRIGPKKAQLIVGWRELHGPFSQVEDLERVEGITGKQMESFLKANILGLAAGQ,not failed
6,EKDTIAAEHKQEASVLLNLHRNKINYLIGETMARMTSLSIAIDRPVDIKKMQSILEKTFDSEPRFSGLYFLNAKGDVTASTTELKTKVNLADRSFFIKAKETKKTVISDSYSSRITGQPIFTICVPVLDSKRNVTDYLVAAIQIDYLKNLINLLSPDVYIEVVNQDGKMIFASGQASHAEDQKPVSGYLDDISWNMKVYPNPVTIEELSKS,failed
7,EKEKDTIAAEHKQEASVLLNLHRNKINYLIGETMARMTSLSIAIDRPVDIKKMQSILEKTFDSEPRFSGLYFLNAKGDVTASTTELKTKVNLADRSFFIKAKETKKTVISDSYSSRITGQPIFTICVPVLDSKRNVTDYLVAAIQIDYLKNLINLLSPDVYIEVVNQDGKMIFASGQASHAEDQKPVSGYLDDISWNMKVYPNPVTIEELSKSL,not failed
8,EKVDLQYAAYEPKKLQSGNKNPLIIWLHGQGEGGTDPDITLLGNKVTALIKEDIQNHFKSGNQKGTYVLTVQAPTYWMDEGDGSNGQGAGTSRYTEVLMDAIKKYVAKIT,failed
9,ELAWLVDCLAPIFDGLRQPVTVVDPSGRFVYYNRASGLLDGLDPQRALGMHLLQSAPWLAAEQSTLLRCLAEGRPSIDTLQAYVGAGGELLQYRHRAIPLRGRDGCLLGAMEL,failed
10,EMRLEKDRFSVNLDVKHFSPEELKVKVLGDVIEVHGKHEERQDEHGFISREFHRKYRIPADVDPLTITSSLSSDGVLTVNGPRKQVSGPERTIPIT,failed
11,EMTLVTLRSNDQFNTTIYGFSDRLRGLEGPRNVLLMNPEEIARHGLHEGQRVTLECAWSDGVDRRVSGLRVTAYDLPDSCVGAYYPETNPLVPLAARDELSGTPAYKGTPVRVRAEGSAAPL,failed
12,EPEQVIRKYTEELKVAPEEDCIICMEKLAVASGYSDMTDSKALGPMVVGRLTKCSHAFHLLCLLAMYCNGNKDGSLQCPSCKTIYGEKTGTQPWGKMEVFR,not failed
13,EQVQRFGDLDVHYNVFNSSFLQPNVASAVGLVRSKAQGVINVVPMEKGKPVEAAVTGSAKDLTGKVIPLEFRRVSEEGAIYNLAQFPISQRETLVFTIKVEAKGEPAQTFSFNKEIFPDE,not failed
14,ERREKKNKIMQAKEDFKKMMEEAKFNPRATFSEFAAKHAKDSRFKAIEKMKDREALFNEFVAAARKKEKE,not failed
15,ETTMPASRSLVDKPVHRFEIIPWNGKKVGYLMYNEFKAGPTTDSQAYNDDLRRAFRDFQTGGVNEFVLDLRYNTGGSLDCAQLLCTMLAPADKMNQLLALLRYSDKRVEANQDLTFNPELIQSGANLNLSTVYVLTTNATRGAAEMVINCLNPYMKVVLIGTKTAGEYVATKPFVHPTDRFILNLVVCNVYNAEEKSDYATGFKPTYEYNEDSYLSTYLPFGNTNETLLNAALKIMSGITDK,failed
16,EVILGDGIFPLTALAVGKDDRAFAVIRTAGGQAPHPDVDFPELSSTGLLLSSLKPADRALLPEGTPDREVSIDLGGQMMPYEWRILTDGQSSSATVQEGQRLRMVMRNRTMMPHPMHIHGHTWALPGSGGLRKDTVLLRHGETMIADLIADNPGEWAFHCHNAYHMETGMLSSLRYE,failed
17,EVKEEDAFYSKKCKLFYKKDNEFKEKGIGTLHLKPTANQKTQLLVRADTNLGNILLNVLIPPNMPCTRTGKNNVLIVCVPNPPIDEKNATMPVTMLIRVKTSEDADELHKILLEKKDA,not failed
18,EVLLETLNATELNETTASLAVHQTMKENGQLFVSNSMAIRYLDRFMDSRPYRMFGNRGINGIDGIVSTALGMSAIAPTQQNVLLIGDLALYHDMNGLFLAKRYQLPLTIVLLNNNGGGIFSFLSQRTLREDDFEPLFGTPLDLDFSLVAELYGASYQEVKTIAELKQILQAAAEEPQFQVIEVKGNRQEN,not failed
19,EVLPDGVINVLGASNCPSKGIDRGGVIDLDAAVNSIQRAIEQAESVSNCQIMGVTLAISGQHITALNESGVIPLSGTVVRKEDIDAAIHIAHSIKLPDG,failed

row,Sequence,protein production
1,EVNAAMNDGVICDMFEGHTPFKPRYVLPDYARYLQQGSEYLELSPAQDLDEALNALTILYHHVPSVTNIPVYLGQLDDILMPFVEGMDADALYRKLKLFWIMLDRTLPDAFMHVNLGPTDNIVCRTLLRIDAELKQVAPNLTFMYDPAVTPDELLQIATTNICQCSKPHIANYPQHASAFDACGFGIVSCYNALPLAGGANTLVRLNLKEVALKATSINDFFERVLPYYCSLTFELIEARSAFLHQESHFFDSFLVKEQLIDESRFAPMFGIYGMAEAVNILQAQMTSETDKSSQSNKPTGYGHSMDANQLGYRISAALDTIVKSTPVTYGYHGRALLHSQGGISLDKGVTPGVRIPYGTEPNPIAHIQALAQHHQYYTAGISDILTIDETVKSNPQAMFQLCKAALELGFREFTANVASNDLMRVTGYMVKRSDIEAFKQ,failed
2,EVPDLPEEPSETAEEVVTVALRCPNGRVLRRRFFKSWNSQVLLDWMMKVGYHKSLYRLSTSFPRRALEVEGGSSLEDIGITVDTVLNVEEKEQSSQ,not failed
3,EVTGSVSLEALEEVQVGENLEVGVGIDELVNAEAFAYDFTLNYDENAFEYVEAISDDGVFVNAKKIEDGKVRVLVSSLTGEPLPAKEVLAKVVLRAEAKAEGSNLSVTNSSVGDGEGLVHEIAGTEKTVNIIE,not failed
4,FAFVYEAQDVGSGREYALKRLLSNEEEKNRAIIQEVCFMKKLSGHPNIVQFCSAASIGKEESDTGQAEFLLLTELCKGQLVEFLKKMESRGPLSCDTVLKIFYQTCRAVQHMHRQKPPIIHRDLKVENLLLSNQGTIKLCDFGSATTISHYPDYSWSAQRRALVEEEITRNTTPMYRTPEIIDLYSNFPIGEKQDIWALGCILYLLCFRQHPFEDGAKLRIVNGKYSIPPHDTQYTVFHSLIRAMLQVNPEERLSIAEVVHQLQEIAAARNVNPKSPITELLEQNGGYGSAT,failed
5,FEERSGVVPCGTPWGQWYQTLEEVFIEVQVPPGTRAQDIQCGLQSRHVALAVGGREILKGKLFDSTIADEGTWTLEDRKMVRIVLTKTKRDAANCWTSLLESEYAADPWVQDQMQRKLTLERFQKENPGFDFSGAEISGNYTKGGPDFSNLEKDGT,not failed
6,FEPRSLITSDKGFVTMTLESLEEIQDVSCAWKELNRKLSSNAVSQITRMCLLKGNMGVCFDVPTTESERLQAEWHDSDWILSVPA,not failed
7,FGAEFSSEACRELGFSSNLLCSSCDLLGQFNLLQLDPDCRGCCQEEAQFETKKLYAGAILEVCGUKLGRFPQVQAFVRSDKPKLFRGLQIKYVRGSDPVLKLLDDNGNIAEELSILKWNTDSVEEFLSEKLERI,failed
8,FGLEGLPKHLKRIPLECLVEAKSYLRQYPQVDSERIGIYGRSKGAELVLAEESIFNDVQCLVLNSPSDVVDEGIIGKWNSHTSSWTHLQKELPYQKFRFRDYLFSKLFRKDFPKDCSARIDIGQMHSPILLLESTVDEIWDASSAIDDIVSHYKGHYITFKKYHETGHMLTVAYQPNHRYRKDWHLLMKESEDSWLATIHFFDRHLK,failed
9,FGNQKIFVCDARADWTNEFRTCSMFKNVHINRWYVITPSRNLRETQEFVQMCIRTASSMKMNICNPIYEEIPDDRNGTYSQAIDNAAANDPQIVMVVMRS,failed
10,FHPVYSVQLEQKLVEKFNLKRALISLDQPNTNEQRKQVAALVSSYLNNNLQEGMAVAVGQGQNVAAVADHAGIVTQRNARFVSAIGGTHRSGDIINADHICRRLAKKYGGSSETLYAPAYVNDPSLRSAFMEHATIKETLSQARKAEFALVGIGDMDENSHMVKLGFFTPKEFVEARLNDGIVGDIGGFDFFKLDGTDADTLMRGRVIGLEMEDLRQIPNVVAMASESRKALSIMGALRTGVIDVLATSVSCAMALLNLAENEE,not failed
11,FLCMIPMFLYDFSSDKVIALIARILYFSDYFIVILFLIFIINSTKYSPFVLENVKRFKVMGCCLLINTIIECINGYNLNTNNIRIFGTDSGGISPLMVISFIFALMCFVIAETFDKAIKIKEDNDLTI,failed
12,FRLIGKHRLPRVDSAAKSDGSALYTQDMKLPGMLVAVVAHAPRLGAAVARVDDAAARAVPGVRAVVRFGGAALRHAGVAVLATNTWAARAGRDALRIEWDEGP,failed
13,FRPVMPSRQIVERQPRMLDFRVEYRDRNVDVVLEDTCTVGEIKQILENELQIPVSKMLLKGWKTGDVEDSTVLKSLHLPKNNSLYVLTPDL,failed
14,GDIEQAAGHVVDGLSHLEVHPDVPDGIRALRERGFRLVTMTNGSSDLSKRLLGRAGLADCFESHLDASGPQRWKPAQAAYQYVVEQVGVRLDEAVLVAVHPWDVDGAQRAGLGGAWLRRDAADYPQVMLPPTYTVGNLRELAETLA,failed
15,GEKIFVRVTSVGRNNCRVDCYGIEYRVPINEIDYGYIDKVDKYVQVGDVVPAIIKELDIDNNIVVVSIKEAKEDPYLGIVKSLNKG,failed
16,GFAAYIWGSDFSFEVSAYAVAEREVPVADWVLRRIVPYRKCYGIDPEEFSSYRNAADSEIFMAYLDDQPVGHVVVSTNWNGYAHIDELAVHAPARRHGVARALLDVAQFWSRRKKLPGMMLETQNNNLGACRLYEQCGYVVGGVDHLRYRGIDPQTAEVAIFWYRLFANELE,failed
17,GGDTELSDSPTLPLNSILAGNCIEILKTLPDNSVDLIFADPPYNLQLSGELFRPEGSRVDAVNNAWDKFDTFAAYDHFTRLWLKEAHRVLKEDGTIWVIGSYHNIFRVGTALQDQGFWILNDIIWRKSNPMPNFKGRRFTNAHETLIWASKSDKSRYVFNYASLKTFNDDLQMRSDWLLPICSGNERLKGENGQKIHPTQKPEALLYRIILASSRPDDVILDPFFGTGTTGVIARHLRRHWIGIEQDPTYIKAAQARIDKAEVF,not failed
18,GGRAVARTLIQDVTERVRSRKKLEHYREYTDRLLDAIDDLFLVFDEEAKLTRWNDRVVEVTGYADEALGGMEALGFVPEEERERVASQIADGFMTGHAKMDIPLRRADGTTVPYEIAGNLVDRP,failed
